Test results taken from the MegaScale stability set (Tsuboyama et al. 2023).

B1: 2K2A (parent)
chain: ELREAFRLYDKEGNGYISTDVMREILAELDETLSSEDLDAMIDEIDADGSGTVDFEEFMGVMT

Variants of: B1
Test: folding stability dG (cDNA display proteolysis); higher = more stable
Conditions: PBS, room temperature

| Variant | folding stability dG [kcal/mol] |
| --- | --- |
| E1S | 2.28 |
| E1N | 2.25 |
| E1K | 2.27 |
| E1P | 1.84 |
| E1I | 2.02 |
| E1Y | 2.41 |
| D37Q | 2.1 |
| D37N | 1.32 |
| D37H | 1.4 |
| D37A | 1.86 |
| D37K | 1.71 |
| D37L | 1.59 |
| D37R | 1.82 |
| D37C | 2 |
| D37Y | 1.26 |
| S34N | 1.58 |
| S34E | 1.05 |
| S34D | 1.3 |
| S34V | 1.02 |
| S34I | 0.894 |
| S34K | 1.45 |
| S34C | 1.2 |
| S34L | 1.21 |
| R23V | -0.067 |

| Variant | folding stability dG [kcal/mol] |
| --- | --- |
| R23F | 0.124 |
| R23I | 0.365 |
| R23W | 0.731 |
| S18P | 1.58 |
| S18E | 0.834 |
| S18N | 1.16 |
| S18D | 0.936 |
| S18C | 1.29 |
| S18F | 1.15 |
| S18M | 1.25 |
| S18G | 1.52 |
| E24N | 2.19 |
| E24T | 2.22 |
| E24W | 2.31 |
| E24P | -0.167 |
| E24S | 2.3 |
| E24A | 2.35 |
| E24Y | 2.2 |
| E36C | 1.85 |
| E36N | 1.66 |
| E36F | 1.83 |
| E36R | 1.82 |
| D48S | 1.57 |
| D48L | 1.38 |

| Variant | folding stability dG [kcal/mol] |
| --- | --- |
| D48F | 1.39 |
| D48I | 1.24 |
| D48M | 1.33 |
| D48Y | 1.3 |
| Y9I | 1.31 |
| Y9E | 0.654 |
| Y9T | 0.17 |
| E44I | 2.07 |
| E44Q | 2.06 |
| E44V | 2.01 |
| E44D | 1.76 |
| E44K | 2.14 |
| E44L | 2.19 |
| I25M | 1.31 |
| I25A | 0.872 |
| I25Q | -0.758 |
| I25R | 0 |
| I25T | -0.61 |
| V61K | 1.32 |
| V61Y | 2.69 |
| V61A | 2.2 |
| V61N | 0.566 |
| V61H | 1.67 |
| V61D | -0.74 |

| Variant | folding stability dG [kcal/mol] |
| --- | --- |
| M22D | -0.77 |
| M22A | 0.924 |
| L8R | 2.38 |
| L8V | 2.07 |
| L8K | 2.44 |
| L8G | 1.73 |
| L8D | 0.997 |
| L8F | 2.1 |
| G60C | 2.25 |
| G60H | 2.48 |
| G60I | 2.39 |
| G60F | 2.49 |
| G60T | 2.37 |
| T19W | 1.4 |
| T19C | 1.39 |
| T19I | 2.29 |
| T19L | 2.27 |
| T19G | 0.526 |
| A27V | 1.59 |
| A27H | 1.94 |
| A27D | 0.222 |
| D54N | 2.26 |
| D54Q | 1.63 |
| D54G | 2.07 |

| Variant | folding stability dG [kcal/mol] |
| --- | --- |
| D54A | 1.78 |
| D54C | 1.51 |
| D54E | 1.33 |
| D54K | 1.57 |
| D54S | 2.43 |
| T52A | 1.11 |
| T52S | 1.45 |
| T52G | 1.02 |
| T52H | 1.69 |
| T52P | -0.373 |
| T52Y | 1.52 |
| M41R | 1.47 |
| M41I | 1.86 |
| M41G | 0.01 |
| M41L | 2.03 |
| M41H | 0.645 |
| S35N | 1.85 |
| S35H | 1.82 |
| S35T | 1.81 |
| S35P | 2.06 |
| S35M | 1.86 |
| S35I | 1.79 |
| E12W | 1.48 |
| E12P | 0.544 |

| Variant | folding stability dG [kcal/mol] |
| --- | --- |
| E12G | 1.16 |
| E12D | 1.85 |
| E12T | 1.32 |
| E12I | 1.1 |
| E12H | 1.41 |
| E12V | 1.19 |
| Y16Q | 1.03 |
| Y16E | 0.315 |
| Y16C | 0.627 |
| Y16W | 2.34 |
| Y16F | 1.89 |
| Y16I | 0.893 |
| D10W | 1.4 |
| D10A | 0.874 |
| D10Q | 0.395 |
| D39H | 1.13 |
| D39I | 1.33 |
| D39Y | 1.06 |
| D39Q | 1.57 |
| D39A | 1.48 |
| E28C | 2.33 |
| E28T | 2.03 |
| E28Q | 2.24 |
| E28M | 2.28 |

| Variant | folding stability dG [kcal/mol] |
| --- | --- |
| E28L | 2.25 |
| E28Y | 1.83 |
| E28H | 2.2 |
| T63M | 2.17 |
| T63R | 1.94 |
| T63N | 1.82 |
| T63A | 1.97 |
| T63S | 1.88 |
| T63G | 1.85 |
| T63W | 1.33 |
| E4M | 1.39 |
| E4L | 1.53 |
| M59H | 1.2 |
| M59F | 2.03 |
| M59S | 1.77 |
| M59C | 1.7 |
| M59T | 1.49 |
| M59Y | 2.02 |
| M62F | 2.04 |
| M62H | 0.762 |
| M62S | 0.277 |
| M62L | 1.5 |
| M62K | 0.674 |
| M62R | 0.711 |

| Variant | folding stability dG [kcal/mol] |
| --- | --- |
| M62V | 1.34 |
| M62T | 0.559 |
| L33H | 0.717 |
| L33Q | 0.501 |
| L33F | 1.34 |
| A47Q | 1.93 |
| A47K | 2.2 |
| A47D | 1.06 |
| A47N | 1.62 |
| A47F | 1.69 |
| A47R | 2.06 |
| E31F | 1.89 |
| E31N | 2.15 |
| E31H | 2.26 |
| E31M | 2.02 |
| E31L | 2 |
| E31T | 2.12 |
| E31V | 2.01 |
| E31R | 2.41 |
| E31A | 2.24 |
| E31P | 2.61 |
| D46C | 0.854 |
| D46T | 0.826 |
| D46A | 0.858 |

| Variant | folding stability dG [kcal/mol] |
| --- | --- |
| R3M | 1.93 |
| R3E | 2.16 |
| R3L | 2.2 |
| R3K | 1.86 |
| I45R | 0.158 |
| I45N | -0.113 |
| I45F | 1.21 |
| I45V | 1.57 |
| I45Q | 0.111 |
| I45C | 0.783 |
| I45K | -0.192 |
| I45H | 0.664 |
| I45W | 1.32 |
| L26W | 0.837 |
| L26F | 1.04 |
| L26I | 1.45 |
| L26M | 1.27 |
| N14S | 1.5 |
| N14D | 1.3 |
| N14R | 2.11 |
| N14Q | 1.53 |
| N14H | 1.63 |
| N14I | 1.73 |
| G15T | 0.259 |

| Variant | folding stability dG [kcal/mol] |
| --- | --- |
| G15K | 0.271 |
| G15H | 0.458 |
| G15W | 0.821 |
| D20S | 2.26 |
| D20F | 1.89 |
| D20K | 2.4 |
| D20C | 1.9 |
| D20N | 2.04 |
| A5W | 2.97 |
| A5H | 1.76 |
| A5M | 2.91 |
| A40K | 2.11 |
| A40I | 1.77 |
| A40R | 2.31 |
| A40F | 1.77 |
| A40N | 1.73 |
| G49I | 0.499 |
| G49H | 1.94 |
| G49Y | 1.04 |
| G49D | 1.42 |
| G49Q | 1.77 |
| G49P | 0.091 |
| G13V | 0.792 |
| G13R | 1.01 |

| Variant | folding stability dG [kcal/mol] |
| --- | --- |
| G13M | 1.23 |
| G13I | 0.538 |
| G13S | 1.18 |
| D30I | 1.81 |
| D30K | 1.45 |
| D30Q | 1.38 |
| D30L | 1.93 |
| D30H | 2.08 |
| L38Q | 0.089 |
| L38V | 1.52 |
| L38C | 0.399 |
| F55Y | 1.88 |
| F55M | 1.31 |
| F55P | -0.144 |
| F55W | 1.75 |
| I42M | 1.72 |
| I42A | -0.231 |
| I42W | 0.22 |
| I42L | 1.73 |
| I42S | -0.099 |
| I17T | -0.998 |
| I17R | -0.847 |
| I17L | 1.36 |
| I17K | -0.854 |

| Variant | folding stability dG [kcal/mol] |
| --- | --- |
| L29M | 2.15 |
| L29E | 0.559 |
| L29Q | 1.49 |
| L29K | 1.52 |
| V53A | 0.162 |
| V53C | 0.799 |
| V53S | 0.029 |
| F58N | -0.854 |
| F58L | 0.779 |
| F58M | 0.426 |
| F58Q | -0.946 |
| F58I | 0.406 |
| F58E | -0.986 |
| R7I | 1.93 |
| R7G | 1.64 |
| R7P | 0.375 |
| R7N | 2.06 |
| S50K | 1.78 |
| S50P | 0.13 |
| S50E | 0.94 |
| S50T | 1.88 |
| L2V | 1.14 |
| L2Y | 1.96 |
| L2D | 0.869 |

| Variant | folding stability dG [kcal/mol] |
| --- | --- |
| L2C | 2.73 |
| L2N | 0.689 |
| L2W | 2.66 |
| L2E | 0.678 |
| L2G | 0.65 |
| V21F | 1.41 |
| V21R | 1.88 |
| V21E | 1.56 |
| V21C | 2 |
| V21T | 1.92 |
| V21I | 2.02 |
| E57Q | 2.48 |
| E57P | 0.106 |
| E57L | 1.9 |
| E57D | 1.72 |
| G51E | 0.622 |
| G51L | 0.92 |
| G51P | -0.745 |
| G51H | 1.39 |
| F6E | 0.086 |
| F6P | 0.281 |
| F6G | -0.227 |
| F6H | 0.31 |
| F6C | 1.79 |

| Variant | folding stability dG [kcal/mol] |
| --- | --- |
| F6T | 0.266 |
| T32Q | 1.57 |
| T32C | 1.73 |
| T32K | 1.79 |
| T32W | 1.62 |
| T32G | 1.67 |
| T32L | 1.46 |
| T32F | 1.62 |
| T32D | 1.42 |
| E56P | 1.21 |
| E56C | 1.92 |
| E56Y | 2.02 |
| E56D | 1.84 |
| E56R | 1.78 |
| E56A | 1.78 |
| D43H | 2.16 |
| D43Q | 2.17 |
| D43T | 1.89 |
| K11R | 1.71 |
| K11T | 1.94 |
| K11N | 1.4 |
| K11G | 1.03 |
